Target: T1, Human PTK7 Protein, His Tag (Acro Biosystems) (human, UniProt Q13308 31-704)
T1 construct: Bought His-tagged protein; also called CCK4; not shown: His tag
T1 sequence: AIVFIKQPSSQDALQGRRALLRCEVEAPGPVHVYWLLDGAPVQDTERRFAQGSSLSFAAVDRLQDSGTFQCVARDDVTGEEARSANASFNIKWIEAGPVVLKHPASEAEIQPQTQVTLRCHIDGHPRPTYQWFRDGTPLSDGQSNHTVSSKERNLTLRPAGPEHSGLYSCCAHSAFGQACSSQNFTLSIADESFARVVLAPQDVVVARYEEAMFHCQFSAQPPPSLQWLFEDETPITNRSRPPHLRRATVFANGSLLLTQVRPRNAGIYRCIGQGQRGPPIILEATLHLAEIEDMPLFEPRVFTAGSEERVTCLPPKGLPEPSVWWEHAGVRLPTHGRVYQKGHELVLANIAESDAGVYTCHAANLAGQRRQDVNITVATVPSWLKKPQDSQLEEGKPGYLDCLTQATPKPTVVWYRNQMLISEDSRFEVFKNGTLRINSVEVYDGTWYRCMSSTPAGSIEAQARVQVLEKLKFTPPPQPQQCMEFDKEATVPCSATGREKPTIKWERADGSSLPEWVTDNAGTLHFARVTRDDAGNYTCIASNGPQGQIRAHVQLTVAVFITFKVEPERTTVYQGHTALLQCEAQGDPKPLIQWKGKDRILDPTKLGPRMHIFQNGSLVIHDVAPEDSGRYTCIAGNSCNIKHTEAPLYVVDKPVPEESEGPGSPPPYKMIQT
Assay: BLI (Octet), antibody on anti-human Fc sensor, 50 nM PTK7; grade 2 = substantially similar binding relative to parent

B1: MYT11039 (antibody, V domains shown)
VH: EVQLVESGGGLVQPGGSLRLSCTASGLSLSSYWMSWVRQAPGKGLEWVGVIHAGGNTYYANWAKGRFTISRDTSKNTVYLQMNSLRAEDTAVYFCARGDDGYTNAAYVSNLWGQGTLVTVSS
VL: EIVMTQSPSTLSASVGDRVIITCQASQSISSWLSWYQQKPGKAPKLLIYKASTLASGVPSRFSGSGSGAEFTLTISSLQPDDFATYYCQSYFDSTTIAFGQGTKLTVL
notes: MYT9361 HC variant
binding result: binds

B2: MYT11042 (antibody, V domains shown)
VH: EVQLVESGGGLVQPGGSLRLSCTASGLSLSSYWMSWVRQAPGKGLEWVGVISAGHNTYYANWAKGRFTISRDTSKNTVYLQMNSLRAEDTAVYFCARGDDGYTNAAYVSNLWGQGTLVTVSS
VL: EIVMTQSPSTLSASVGDRVIITCQASQSISSWLSWYQQKPGKAPKLLIYKASTLASGVPSRFSGSGSGAEFTLTISSLQPDDFATYYCQSYFDSTTIAFGQGTKLTVL
notes: MYT9361 HC variant
binding result: binds

B3: MYT11041 (antibody, V domains shown)
VH: EVQLVESGGGLVQPGGSLRLSCTASGLSLSSYWMSWVRQAPGKGLEWVGVISAHGNTYYANWAKGRFTISRDTSKNTVYLQMNSLRAEDTAVYFCARGDDGYTNAAYVSNLWGQGTLVTVSS
VL: EIVMTQSPSTLSASVGDRVIITCQASQSISSWLSWYQQKPGKAPKLLIYKASTLASGVPSRFSGSGSGAEFTLTISSLQPDDFATYYCQSYFDSTTIAFGQGTKLTVL
notes: MYT9361 HC variant
binding result: binds

B4: MYT11047 (antibody, V domains shown)
VH: EVQLVESGGGLVQPGGSLRLSCTASGLSLSSYWMSWVRQAPGKGLEWVGVISAGGNTYYHNWAKGRFTISRDTSKNTVYLQMNSLRAEDTAVYFCARGDDGYTNAAYVSNLWGQGTLVTVSS
VL: EIVMTQSPSTLSASVGDRVIITCQASQSISSWLSWYQQKPGKAPKLLIYKASTLASGVPSRFSGSGSGAEFTLTISSLQPDDFATYYCQSYFDSTTIAFGQGTKLTVL
notes: MYT9361 HC variant
binding result: binds

B5: MYT11049 (antibody, V domains shown)
VH: EVQLVESGGGLVQPGGSLRLSCTASGLSLSSYWMSWVRQAPGKGLEWVGVISAGGNTYYANHAKGRFTISRDTSKNTVYLQMNSLRAEDTAVYFCARGDDGYTNAAYVSNLWGQGTLVTVSS
VL: EIVMTQSPSTLSASVGDRVIITCQASQSISSWLSWYQQKPGKAPKLLIYKASTLASGVPSRFSGSGSGAEFTLTISSLQPDDFATYYCQSYFDSTTIAFGQGTKLTVL
notes: MYT9361 HC variant
binding result: binds

B6: MYT11044 (antibody, V domains shown)
VH: EVQLVESGGGLVQPGGSLRLSCTASGLSLSSYWMSWVRQAPGKGLEWVGVISAGGNHYYANWAKGRFTISRDTSKNTVYLQMNSLRAEDTAVYFCARGDDGYTNAAYVSNLWGQGTLVTVSS
VL: EIVMTQSPSTLSASVGDRVIITCQASQSISSWLSWYQQKPGKAPKLLIYKASTLASGVPSRFSGSGSGAEFTLTISSLQPDDFATYYCQSYFDSTTIAFGQGTKLTVL
notes: MYT9361 HC variant
binding result: binds

B7: MYT11057 (antibody, V domains shown)
VH: EVQLVESGGGLVQPGGSLRLSCTASGLSLSSYWMSWVRQAPGKGLEWVGVISAGGNTYYANWAKGRFTISRDTSKNTVYLQMNSLRAEDTAVYFCARGDHGYTNAAYVSNLWGQGTLVTVSS
VL: EIVMTQSPSTLSASVGDRVIITCQASQSISSWLSWYQQKPGKAPKLLIYKASTLASGVPSRFSGSGSGAEFTLTISSLQPDDFATYYCQSYFDSTTIAFGQGTKLTVL
notes: MYT9361 HC variant
binding result: binds

B8: MYT11061 (antibody, V domains shown)
VH: EVQLVESGGGLVQPGGSLRLSCTASGLSLSSYWMSWVRQAPGKGLEWVGVISAGGNTYYANWAKGRFTISRDTSKNTVYLQMNSLRAEDTAVYFCARGDDGYTHAAYVSNLWGQGTLVTVSS
VL: EIVMTQSPSTLSASVGDRVIITCQASQSISSWLSWYQQKPGKAPKLLIYKASTLASGVPSRFSGSGSGAEFTLTISSLQPDDFATYYCQSYFDSTTIAFGQGTKLTVL
notes: MYT9361 HC variant
binding result: binds

B9: MYT11046 (antibody, V domains shown)
VH: EVQLVESGGGLVQPGGSLRLSCTASGLSLSSYWMSWVRQAPGKGLEWVGVISAGGNTYHANWAKGRFTISRDTSKNTVYLQMNSLRAEDTAVYFCARGDDGYTNAAYVSNLWGQGTLVTVSS
VL: EIVMTQSPSTLSASVGDRVIITCQASQSISSWLSWYQQKPGKAPKLLIYKASTLASGVPSRFSGSGSGAEFTLTISSLQPDDFATYYCQSYFDSTTIAFGQGTKLTVL
notes: MYT9361 HC variant
binding result: binds

B10: MYT11052 (antibody, V domains shown)
VH: EVQLVESGGGLVQPGGSLRLSCTASGLSLSSYWMSWVRQAPGKGLEWVGVISAGGNTYYANWAKHRFTISRDTSKNTVYLQMNSLRAEDTAVYFCARGDDGYTNAAYVSNLWGQGTLVTVSS
VL: EIVMTQSPSTLSASVGDRVIITCQASQSISSWLSWYQQKPGKAPKLLIYKASTLASGVPSRFSGSGSGAEFTLTISSLQPDDFATYYCQSYFDSTTIAFGQGTKLTVL
notes: MYT9361 HC variant
binding result: binds

B11: MYT11054 (antibody, V domains shown)
VH: EVQLVESGGGLVQPGGSLRLSCTASGLSLSSYWMSWVRQAPGKGLEWVGVISAGGNTYYANWAKGRFTISRDTSKNTVYLQMNSLRAEDTAVYFCAHGDDGYTNAAYVSNLWGQGTLVTVSS
VL: EIVMTQSPSTLSASVGDRVIITCQASQSISSWLSWYQQKPGKAPKLLIYKASTLASGVPSRFSGSGSGAEFTLTISSLQPDDFATYYCQSYFDSTTIAFGQGTKLTVL
binding result: binds

B12: MYT11040 (antibody, V domains shown)
VH: EVQLVESGGGLVQPGGSLRLSCTASGLSLSSYWMSWVRQAPGKGLEWVGVISHGGNTYYANWAKGRFTISRDTSKNTVYLQMNSLRAEDTAVYFCARGDDGYTNAAYVSNLWGQGTLVTVSS
VL: EIVMTQSPSTLSASVGDRVIITCQASQSISSWLSWYQQKPGKAPKLLIYKASTLASGVPSRFSGSGSGAEFTLTISSLQPDDFATYYCQSYFDSTTIAFGQGTKLTVL
notes: MYT9361 HC variant
binding result: binds

B13: MYT11043 (antibody, V domains shown)
VH: EVQLVESGGGLVQPGGSLRLSCTASGLSLSSYWMSWVRQAPGKGLEWVGVISAGGHTYYANWAKGRFTISRDTSKNTVYLQMNSLRAEDTAVYFCARGDDGYTNAAYVSNLWGQGTLVTVSS
VL: EIVMTQSPSTLSASVGDRVIITCQASQSISSWLSWYQQKPGKAPKLLIYKASTLASGVPSRFSGSGSGAEFTLTISSLQPDDFATYYCQSYFDSTTIAFGQGTKLTVL
notes: MYT9361 HC variant
binding result: binds

B14: MYT11045 (antibody, V domains shown)
VH: EVQLVESGGGLVQPGGSLRLSCTASGLSLSSYWMSWVRQAPGKGLEWVGVISAGGNTHYANWAKGRFTISRDTSKNTVYLQMNSLRAEDTAVYFCARGDDGYTNAAYVSNLWGQGTLVTVSS
VL: EIVMTQSPSTLSASVGDRVIITCQASQSISSWLSWYQQKPGKAPKLLIYKASTLASGVPSRFSGSGSGAEFTLTISSLQPDDFATYYCQSYFDSTTIAFGQGTKLTVL
notes: MYT9361 HC variant
binding result: binds

B15: MYT11055 (antibody, V domains shown)
VH: EVQLVESGGGLVQPGGSLRLSCTASGLSLSSYWMSWVRQAPGKGLEWVGVISAGGNTYYANWAKGRFTISRDTSKNTVYLQMNSLRAEDTAVYFCARHDDGYTNAAYVSNLWGQGTLVTVSS
VL: EIVMTQSPSTLSASVGDRVIITCQASQSISSWLSWYQQKPGKAPKLLIYKASTLASGVPSRFSGSGSGAEFTLTISSLQPDDFATYYCQSYFDSTTIAFGQGTKLTVL
notes: MYT9361 HC variant
binding result: binds

B16: MYT11051 (antibody, V domains shown)
VH: EVQLVESGGGLVQPGGSLRLSCTASGLSLSSYWMSWVRQAPGKGLEWVGVISAGGNTYYANWAHGRFTISRDTSKNTVYLQMNSLRAEDTAVYFCARGDDGYTNAAYVSNLWGQGTLVTVSS
VL: EIVMTQSPSTLSASVGDRVIITCQASQSISSWLSWYQQKPGKAPKLLIYKASTLASGVPSRFSGSGSGAEFTLTISSLQPDDFATYYCQSYFDSTTIAFGQGTKLTVL
notes: MYT9361 HC variant
binding result: binds

B17: MYT11050 (antibody, V domains shown)
VH: EVQLVESGGGLVQPGGSLRLSCTASGLSLSSYWMSWVRQAPGKGLEWVGVISAGGNTYYANWHKGRFTISRDTSKNTVYLQMNSLRAEDTAVYFCARGDDGYTNAAYVSNLWGQGTLVTVSS
VL: EIVMTQSPSTLSASVGDRVIITCQASQSISSWLSWYQQKPGKAPKLLIYKASTLASGVPSRFSGSGSGAEFTLTISSLQPDDFATYYCQSYFDSTTIAFGQGTKLTVL
notes: MYT9361 HC variant
binding result: binds

B18: MYT11060 (antibody, V domains shown)
VH: EVQLVESGGGLVQPGGSLRLSCTASGLSLSSYWMSWVRQAPGKGLEWVGVISAGGNTYYANWAKGRFTISRDTSKNTVYLQMNSLRAEDTAVYFCARGDDGYHNAAYVSNLWGQGTLVTVSS
VL: EIVMTQSPSTLSASVGDRVIITCQASQSISSWLSWYQQKPGKAPKLLIYKASTLASGVPSRFSGSGSGAEFTLTISSLQPDDFATYYCQSYFDSTTIAFGQGTKLTVL
notes: MYT9361 HC variant
binding result: binds

B19: MYT11048 (antibody, V domains shown)
VH: EVQLVESGGGLVQPGGSLRLSCTASGLSLSSYWMSWVRQAPGKGLEWVGVISAGGNTYYAHWAKGRFTISRDTSKNTVYLQMNSLRAEDTAVYFCARGDDGYTNAAYVSNLWGQGTLVTVSS
VL: EIVMTQSPSTLSASVGDRVIITCQASQSISSWLSWYQQKPGKAPKLLIYKASTLASGVPSRFSGSGSGAEFTLTISSLQPDDFATYYCQSYFDSTTIAFGQGTKLTVL
notes: MYT9361 HC variant
binding result: binds
